According to patent publication US11807887B2, “Compositions and methods related to nucleic acid synthesis” (Nuclera Ltd., priority 2015, dated 2023):

Tests used:
Assay type in all cases: biochemical
[1] = test system: single-stranded DNA initiator (SEQ ID NO: 7); test: Addition of 3′-O-azidomethyl nucleotide triphosphates to a DNA initiator by TdT orthologs, capillary electrophoresis; conditions: for performance in adding 3′-O-azidomethyl dTTP and 3′-O-azidomethyl dCTP compared to Bos taurus TdT: 20 min, capillary electrophoresis; for ability to add 3′-O reversibly terminated (blocked) nucleotide triphosphates: 3′-O-azidomethyl nucleotide triphosphate, FIG. 3
Protocol: (A) A single-stranded DNA initiator was incubated with TdT with the indicated species for 60 min in the above mentioned buffer and reaction conditions. Reactions were then analysed by capillary electrophoresis and a subset of chromatograms are shown. (B) Fraction of DNA initiator strand converted to N+1 species (addition of 3′-O-azidomethyl dTTP) in one hour. (C) Three TdT orthologs were reacted with 3′-O-azidomethyl dTTP and 3′-O-azidomethyl dCTP for 20 min.
A single-stranded DNA initiator (SEQ ID NO: 7) was incubated with purified, recombinant TdT orthologs, required salts (50 mM potassium acetate, 20 mM tris acetate pH 7.9, 1.5 mM cobalt chloride, Saccharomyces cerevisiae inorganic pyrophosphatase), and 3′-O-azidomethyl dTTP at 37° C. for 60 min. The 3′-blocked nucleotide triphosphate was at a concentration of 1 mM and the DNA initiator at 200 nM and analysed via capillary electrophoresis as shown in FIG. 3(A).
The experiment was repeated with the exception that both 3′-O-azidomethyl dTTP and 3′-O-azidomethyl dCTP was used as the 3′-blocked nucleotide triphosphate. The reaction was stopped after 20 min and analysed via capillary electrophoresis.

[2] = test system: single-stranded DNA initiator (SEQ ID NO: 7); test: Engineered versus wild-type Lepisosteus oculatus TdT, addition of 3′-reversibly blocked dNTP measured by PAGE; conditions: 3′-reversibly blocked dCTP, dGTP or dTTP, 1 mM, 37° C., 20 min
Protocol: Addition of the dNTP was measured by PAGE and the conversion relative to wild-type TdT was plotted.
A single-stranded DNA initiator (SEQ ID NO: 7) was incubated with either a purified wild-type Lepisosteus oculatus TdT or a purified, recombinant engineered form of Lepisosteus oculatus TdT (SEQ ID NO: 8), required salts, cobalt chloride, Saccharomyces cerevisiae inorganic pyrophosphatase, and 3′-O-azidomethyl dTTP at 37° C. for 20 min.

[3] = test system: single-stranded DNA initiator (SEQ ID NO: 7); test: Engineered Lepisosteus oculatus TdT versus Bos taurus TdT, denaturing PAGE gel; conditions: 3′-O-azidomethyl dTTP, 37° C., 10 min
Protocol: A single-stranded DNA initiator (SEQ ID NO: 7) was incubated with a purified, recombinant engineered form of Lepisosteus oculatus TdT, required salts, cobalt chloride, Saccharomyces cerevisiae inorganic pyrophosphatase, and 3′-O-azidomethyl dTTP at 37° C. for 10 min.

B1: Sarcophilus harrisii TdT: terminal deoxynucleotidyl transferase sequence from Sarcophilus harrisii (UniProt: G3VQ55) (protein, listed as Sarcophilus harrisii)
chain: MHRIRTTDSDHGKKRQKKMDAISSKLYEIKFHEFVLFILEKKMGATRRTFLMDLARKKGFRVESELSNSVTHIVAENNSGSDVLAWLEAHKLETTAHFELLDVSWLIECMKVGKPVDTKGKYQLVESSIASANPDPNEGMLKIQSPAMNAISPYACQRRTTLNNHNQRFTDAFEILAKNYEFRENHGHCLTFLRATSVLKCLPFAIVSMKDAEGLPWIGDEVKGIMEEIIEDGQSLEVQAVLNDERYQAFKLFTSVFGVGLKTAEKWYRMGFRTLSKIQSDKSLKFTKMQKAGFLYYEDLISCVSKAEADAVSLIVKEAVWTFLPDALITITGGFRRGKEFGHDVDFLITSPGGEKEQVDQLLQKVTNLWEKQGLLLYYDLMESTFEDLKLPSRKVDALDHFQKCFLILKLYCQRGDRSKWEGPEGSNGLQTKNWKAIRVDLVVCPYDRYAYALLGWSGSRQFERDLRRYATHEKKMMLDNHALYDKTKRTFLKAESEEEIFSHLGLEYIEPWERNA
performance in adding 3′-O-azidomethyl dTTP and 3′-O-azidomethyl dCTP compared to Bos taurus TdT [1]: consistently perform better compared to Bos taurus TdT

B2: Lepisosteus oculatus TdT: terminal deoxynucleotidyl transferase sequence from Lepisosteus oculatus (UniProt: W5MK82) (protein, listed as Lepisosteus oculatus)
chain: MLHIPIFPPIKKRQKLPESRNSCKYEVKFSEVAIFLVERKMGSSRRKFLTNLARSKGFRIEDVLSDAVTHVVAEDNSADELWQWLQNSSLGDLSKIEVLDISWFTECMGAGKPVQVEARHCLVKSCPVIDQYLEPSTVETVSQYACQRRTTMENHNQIFTDAFAILAENAEFNESEGPCLAFMRAASLLKSLPHAISSSKDLEGLPCLGDQTKAVIEDILEYGQCSKVQDVLCDDRYQTIKLFTSVFGVGLKTAEKWYRKGFHSLEEVQADNAIHFTKMQKAGFLYYDDISAAVCKAEAQAIGQIVEETVRLIAPDAIVTLTGGFRRGKECGHDVDFLITTPEMGKEVWLLNRLINRLQNQGILLYYDIVESTFDKTRLPCRKFEAMDHFQKCFAIIKLKKELAAGRVQKDWKAIRVDFVAPPVDNFAFALLGWTGSRQFERDLRRFARHERKMLLDNHALYDKTKKYLKKKTTNNYLALNDVCSDLSEWHYKG
performance in adding 3′-O-azidomethyl dTTP and 3′-O-azidomethyl dCTP compared to Bos taurus TdT [1]: consistently perform better compared to Bos taurus TdT

B3: Bos taurus TdT: commercially available terminal deoxynucleotidyl transferase from Bos taurus (UniProt: P06526) (protein, listed as Bos taurus)
chain: MDPLCTASSGPRKKRPRQVGASMASPPHDIKFQNLVLFILEKKMGTTRRNFLMELARRKGFRVENELSDSVTHIVAENNSGSEVLEWLQVQNIRASSQLELLDVSWLIESMGAGKPVEITGKHQLVVRTDYSATPNPGFQKTPPLAVKKISQYACQRKTTLNNYNHIFTDAFEILAENSEFKENEVSYVTFMRAASVLKSLPFTIISMKDTEGIPCLGDKVKCIIEEIIEDGESSEVKAVLNDERYQSFKLFTSVFGVGLKTSEKWFRMGFRSLSKIMSDKTLKFTKMQKAGFLYYEDLVSCVTRAEAEAVGVLVKEAVWAFLPDAFVTMTGGFRRGKKIGHDVDFLITSPGSAEDEEQLLPKVINLWEKKGLLLYYDLVESTFEKFKLPSRQVDTLDHFQKCFLILKLHHQRVDSSKSNQQEGKTWKAIRVDLVMCPYENRAFALLGWTGSRQFERDIRRYATHERKMMLDNHALYDKTKRVFLKAESEEEIFAHLGLDYIEPWERNA
ability to add 3′-O reversibly terminated (blocked) nucleotide triphosphates [1]: only efficiently adds irreversibly blocked nucleotides | ability to add 3′-O reversibly terminated (blocked) nucleotide triphosphates ([1]; listed as recombinant TdT sourced from calf thymus): unable to add 3′-O-terminated nucleotide triphosphates in a quantitative fashion

B4: engineered variant (SEQ ID NO: 8): variant of SEQ ID NO: 2 engineered for improved activity by alteration of the amino acid sequence (protein)
chain: MLHIPIFPPIKKRQKLPESRNSCKYEVKFSEVAIFLVERKMGSSRRKFLTNLARSKGFRIEDVLSDAVTHVVAENNSADELLQWLQNSSLGDLSKIEVLDISWFTECMGAGKPVQVEARHCLVKSCPVIDQYLEPSTVETVSQYACQRRTTMENHNQIFTDAFAILAENAEFNESEGPCLAFMRAASLLKSLPHAISSSKDLEGLPCLGDQTKAVIEDILEYGQCSKVQDVLCDDRYQTIKLFTSVFGVGLRTAEKWYRKGFHSLEEVQADNAIHFTKMQKAGFLYYDDISAAVCKAEAQAIGQIVEETVRLIAPDAIVTLTGGFRRGKECGHDVDFLITTPEMGKEVWLLNRLINRLQNQGILLYYDIVESTFDKTRLPCRKFEAMDHFQKCFAIIKLKKELAAGRVQKDWKAIRVDFVAPPVDNFAFALLGWTGSRQFERDLRRFARHERKMLLDNHALYDKTKKIFLPAKTEEDIFAHLGLDYIDPWQRNA
conversion of initiator strand of length n to n+1 versus wild-type Lepisosteus oculatus TdT [2]: improved ability to convert the initiator strand of length n to a strand of length n+1 | incorporation of 3′-reversibly blocked nucleotides versus Bos Taurus TdT [3]: much better than Bos Taurus TdT | incorporation of 3′-reversibly blocked nucleotides versus wild-type Lepisosteus oculatus TdT [3]: better than the wild-type Lepisosteus oculatus TdT
